Data on four molecules can be found in US20220259324A1 (MINERVA BIOTECHNOLOGIES, published 2022).

For test [1], the target named is T1, Human NME7-AB, also known as NME7AB (recombinant, devoid of the DM10 domain) (human, UniProt Q9Y5B8 92-376).
T1 construct: Recombinant, expressed in E. coli, purified over NTA-Ni and by size exclusion; monomer of about 33 kDa; also called NME-AB
T1 sequence: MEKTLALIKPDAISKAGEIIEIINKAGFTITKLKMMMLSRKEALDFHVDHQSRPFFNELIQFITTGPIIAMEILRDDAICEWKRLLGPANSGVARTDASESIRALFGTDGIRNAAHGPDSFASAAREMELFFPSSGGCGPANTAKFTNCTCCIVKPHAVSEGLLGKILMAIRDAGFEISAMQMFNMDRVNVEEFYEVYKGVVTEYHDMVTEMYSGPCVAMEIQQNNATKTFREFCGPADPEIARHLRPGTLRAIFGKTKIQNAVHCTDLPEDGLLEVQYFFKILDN
Briefly: sandwich ELISA, HRP signal (FIG. 1). As for the experimental part:
The PSMGFR peptide bearing a C-terminal Cysteine (PSMGFR-Cys) was covalently coupled to BSA using Imject Maleimide activated BSA kit (Thermo Fisher). PSMGFR-Cys coupled BSA was diluted to 10 ug/mL in 0.1M carbonate/bicarbonate buffer pH 9.6 and 50 uL was added to each well of a 96 well plate. After overnight incubation at 4° C., the plate was washed twice with PBS-T and a 3% BSA solution was added to block remaining binding site on the well. After 1h at RT the plate was washed twice with PBS-T and NME7, diluted in PBS-T+1% BSA, was added at different concentrations. After 1h at RT the plate was washed 3× with PBS-T and anti-NM23-H7 (B-9, Santa Cruz Biotechnology), diluted in PBS-T+1% BSA, was added at 1/500 dilution. […] After 1h at RT the plate was washed 3× with PBS-T and binding of NME7 was measured at 415 nm using ABTS solution (Pierce). […]
After 1h at RT the plate was washed 3× with PBS-T and His-Tagged PSMGFR peptide (PSMGFR-His) or biotinylated PSMGFR peptide (PSMGFR-biotin), diluted in PBS-T+1% BSA, was added at different concentration. […] After 1h at RT the plate was washed 3× with PBS-T and binding of PSMGFR peptide to NME7 already bound to another PSMGFR peptide (which could not signal by anti-His antibody or by streptavidin) coupled BSA was measured at 415 nm using a ABTS solution (Pierce).

The target of test [2] is T1, Human NME7-AB, also known as NME7AB …. Briefly: ELISA, plate coated with recombinant NME7-AB (FIG. 24).

Substitutions are numbered along the chain they refer to.

B1: PSMGFR peptide (MUC1* extra cellular domain peptide) (peptide)
peptide: GTINVHDVETQFNQYKTEAASRYNLTISDVSVSDVPFPFSAQSGA
notes: Synthetic peptide immobilized on ELISA plates; also called MUC1* peptide; FLR
Regarding B1, the binding result in test [1] is given as “binds”.

B2: Monoclonal antibody 8F9A4A3 (antibody, V domains shown)
VH: VQLQQSGPELVKPGASVKISCKTSGNTFTEYTMHWVKQSHGKSLEWIGGFNPNNGVTNYNQKFKGKATLTVDKSSSTAYMELRSLTSEDSAVYYCARRYYHSLYVFYFDYWGQGTTLTVSS
VL: ETTVTQSPASLSMAIGEKVTIRCITSTDIDDDMNWYQQKPGEPPKLLISEGNTLRPGVPSRFSSSGYGTDFVFTIENMLSEDVADYYCLQSDNLPLTFGSGTKLEIKR
notes: Mouse monoclonal antibody
Consider B2, for which the binding result in test [2] is listed as “binds”.

B3: Monoclonal Antibody 5F3A5D4 (antibody, V domains shown)
VH: B2 VH with E9D, A15T, L103T, Y110S
VL: DIQMTQTTSSLSASLGDRVTISCSASQGISNYLNWFQQKPDGTIKLLIYYTSSLHSGVPSRFSGSGSGTDYSLTISNVEPEDIATYYCQQYSKLPYTFGGGTKLEIKR
notes: Mouse monoclonal antibody
For B3, in test [2], the binding result is listed as “binds”.

B4: Monoclonal Antibody 8F9A5A1 (antibody, V domains shown)
VH: IQLVQSGPELKKPGETVKISCKASGYTFTNYGMNWVKQAPGKGLKWMGWINTYTGEPTYVDDFKGRFAFSLETSATTAYLQINNLKNEDTSTYFCARLRGIRPGPLAYWGQGTLVTVSA
VL: EILLTQSPAIIAASPGEKVTITCSASSSVSYMNWYQQKPGSSPKIWIYGISNLASGVPARFSGSGSGTSFSFTINSMEAEDVATYYCQQRSSYPPTFGGGTKLEIKR
notes: Mouse monoclonal antibody
Take B4: in test [2], the binding result is reported as “binds”.
